“And” between values parts separate entries of the source, which are not always exact repeats. Equal entries are not always repeated.
Details: Capra hircus, pH 6, Cacodylate 0.03 M, Potassium chloride 0.1 M, reversible: Yes; for denaturant midpoint (higher = more stable) / unfolding free energy: 25 °C, GdnHCl

wild type, Q3LUG9, sequence (Q3LUG9 entry or part of it): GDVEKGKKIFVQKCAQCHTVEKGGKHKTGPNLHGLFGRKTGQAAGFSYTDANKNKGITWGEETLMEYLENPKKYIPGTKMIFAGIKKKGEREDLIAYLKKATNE

## wild type, Q3LUG9
Absorbance
  denaturant midpoint (higher = more stable): 2.7 M and 2.6 M
  unfolding free energy: 9.49 kcal/mol and 9.39 kcal/mol
CD
  denaturant midpoint (higher = more stable): 2.5 M and 2.6 M
  unfolding free energy: 9.3 kcal/mol and 9.58 kcal/mol
Thermal, CD
  heat capacity change of unfolding: 1.29 kcal/mol/K
